Results taken from paper PMC4709591.

How the values were obtained:
[1] = molecular target: human toll-like receptor 5 (TLR5) (human) (UniProt O60602)
[2] = molecular target: human toll-like receptor 5 (TLR5) (human) (UniProt O60602); remark: listed apart in the source
[3] = molecular target: human toll-like receptor 5 (TLR5) (human) (UniProt O60602); remark: listed apart in the source
[4] = molecular target: human toll-like receptor 5 (TLR5) (human) (UniProt O60602); remark: listed apart in the source

Chain of UniProt O60602 (O60602 21-858): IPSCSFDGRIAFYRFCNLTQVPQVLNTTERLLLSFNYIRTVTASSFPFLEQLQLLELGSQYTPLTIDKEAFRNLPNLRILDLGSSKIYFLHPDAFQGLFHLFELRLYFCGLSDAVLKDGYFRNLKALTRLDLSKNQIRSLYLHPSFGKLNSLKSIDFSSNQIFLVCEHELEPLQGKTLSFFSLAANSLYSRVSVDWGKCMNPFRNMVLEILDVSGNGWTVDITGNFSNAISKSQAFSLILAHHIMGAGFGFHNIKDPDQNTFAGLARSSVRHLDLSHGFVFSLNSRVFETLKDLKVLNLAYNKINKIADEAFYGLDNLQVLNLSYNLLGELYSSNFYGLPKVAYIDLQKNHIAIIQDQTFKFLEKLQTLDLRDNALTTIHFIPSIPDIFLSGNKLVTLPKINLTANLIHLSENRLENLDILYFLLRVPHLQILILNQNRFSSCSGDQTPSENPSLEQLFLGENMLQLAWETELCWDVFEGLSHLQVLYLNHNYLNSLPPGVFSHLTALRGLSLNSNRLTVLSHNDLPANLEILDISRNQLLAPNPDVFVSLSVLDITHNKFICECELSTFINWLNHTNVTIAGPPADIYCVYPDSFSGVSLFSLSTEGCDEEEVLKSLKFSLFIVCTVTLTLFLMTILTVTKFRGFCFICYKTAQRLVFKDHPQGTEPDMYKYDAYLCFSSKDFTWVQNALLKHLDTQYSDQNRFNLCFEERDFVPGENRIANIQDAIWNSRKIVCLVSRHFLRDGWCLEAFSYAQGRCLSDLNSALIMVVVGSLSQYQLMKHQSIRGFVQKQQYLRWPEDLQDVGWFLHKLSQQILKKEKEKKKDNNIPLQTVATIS

## flagellin (FliC) from S. typhimurium SL1344, full-length (from UniProt P06179 1-495) (natural protein)
[1]
  EC50 of bioactivity (SEAP reporter in HEK-Blue-hTLR5 cells): 1.3 pM

## flagellin mutant SS1 (L12-N484 replaced with cysteine) (from UniProt P06179 1-495) (natural protein)
[2]
  EC50 of bioactivity (cell-based TLR5 stimulation assay); decreased against native flagellin: < 10 pM

## flagellin mutant SS2 (Q22-Q473 replaced with cysteine) (from UniProt P06179 1-495) (natural protein)
[2]
  EC50 of bioactivity (cell-based TLR5 stimulation assay); decreased against native flagellin: < 10 pM

## flagellin mutant SS3 (Q22-T477 replaced with cysteine) (from UniProt P06179 1-495) (natural protein)
[2]
  EC50 of bioactivity (cell-based TLR5 stimulation assay); decreased against native flagellin: < 10 pM

## flagellin mutant SS4 (G35-S457 replaced with cysteine) (from UniProt P06179 1-495) (natural protein)
[2]
  EC50 of bioactivity (cell-based TLR5 stimulation assay); decreased against native flagellin: < 10 pM

## flagellin mutant SS5 (L36-D456 replaced with cysteine) (from UniProt P06179 1-495) (natural protein)
[2]
  EC50 of bioactivity (cell-based TLR5 stimulation assay); decreased against native flagellin: < 10 pM

## flagellin mutant SS6 (A51-R451 replaced with cysteine) (from UniProt P06179 1-495) (natural protein)
[2]
  EC50 of bioactivity (cell-based TLR5 stimulation assay); decreased against native flagellin: < 10 pM

## flagellin without the C-terminal D0 domain (S452-R495) (from UniProt P06179 1-451) (domain or fragment)
[1]
  EC50 of bioactivity (SEAP reporter in HEK-Blue-hTLR5 cells): 80 pM

## flagellin-HBc VLP conjugate with 2 flagellins on a VLP (1:40 reactant ratio) (from UniProt P06179 1-495) (complex)
[3]
  bioactivity against free flagellin (SEAP reporter in HEK-Blue-hTLR5 cells): 7 fold
[4]
  potency of TLR5 stimulation, based on flagellin concentration (SEAP reporter in HEK-Blue-hTLR5 cells): 1 pM

## flagellin-HBc VLP conjugate with 10 flagellins on a VLP (1:10 reactant ratio) (from UniProt P06179 1-495) (complex)
[3]
  bioactivity against free flagellin (SEAP reporter in HEK-Blue-hTLR5 cells): 7 fold

## flagellin-HBc VLP conjugate with 33 flagellins on a VLP (1:2 reactant ratio) (from UniProt P06179 1-495) (complex)
[3]
  bioactivity against free flagellin (SEAP reporter in HEK-Blue-hTLR5 cells): 7 fold
[4]
  potency of TLR5 stimulation, based on flagellin concentration (SEAP reporter in HEK-Blue-hTLR5 cells): 1 pM

## soluble SS5 HIII flagellin (L36C-D456C; HPG1+A2I+M310I+M466I) (from UniProt P06179 1-495) (natural protein)
[3]
  minimum flagellin concentration stimulating the TLR5 receptors (SEAP reporter in HEK-Blue-hTLR5 cells): 0.2 pM
